Measurements reported in PMC6893399.

Columns and labels:
[1] = spontaneous alternation, enclosed plus maze; conditions: glycan lost; control: wild-type littermates
[2] = histology, four points along cortex; conditions: glycan lost; control: wild-type littermates
open-field test = conditions: glycan lost; control: wild-type littermates
[3] = 3F4 (P509/514/518/522) antibody western blot, brain lysate; conditions: glycan lost; control: wild-type mice
[4] = P509/514-CRMP2 antibody western blot, brain lysate; conditions: glycan lost; control: wild-type mice
[5] = total CRMP2 western blot, brain lysate; conditions: glycan lost; control: wild-type mice
[6] = maximum speed, NOR test phase; conditions: glycan lost; control: wild-type littermates
[7] = distance travelled, NOR test phase; conditions: glycan lost; control: wild-type littermates
[8] = histology, lateral and third ventricles; conditions: glycan lost; control: wild-type littermates

CRMP2: Crmp2S517A
other: spatial working memory [1]: no change | other: cortical thickness, other: thickness [2]: no change, 1127 ± 93.24 vs 1197 ± 175.4 | other: anxiety and locomotor activity (open-field test): no change | other: CRMP2 phosphorylation at GSK3β sites [3]: no change | other: CRMP2 phosphorylation at GSK3β sites [4]: no change | expression_or_secretion [5]: no change | other: locomotion during NOR test phase, other: speed [6]: decreases, 0.124 ± 0.017 vs 0.145 ± 0.027 | other: locomotion during NOR test phase, other: distance [7]: decreases, 9.4 ± 2.0 vs 12.8 ± 3.4 | other: brain ventricular volume, other: volume [8]: no change, 4.160 ± 1.252 vs 3.592 ± 1.155
